According to patent US6005086, “Farnesoid activated receptor polypeptides, and nucleic acid encoding the same” (The Salk Institute for Biological Studies):

How the values were obtained:
[1] = target: T1, FAR-RXRalpha heterodimer (Rattus norvegicus (FAR) / Homo sapiens …, UniProt Q62735;P19793 Q62735:1-469,P19793:1-462); test: cell_activity; 50 uM JH III; 76-fold with 100 nM LG69, 212-fold with both; parental MTV reporter lacking EcREs not activated by JH III; conditions: tags: CMV expression vectors in CV-1 cells
Procedure: Thus, with reference to FIG. 5A, CV-1 cells were transiently transfected with hsp27-EcRE×5 MTV-luciferase alone (−) or with expression vectors for rat FAR and/or human RXRα. Reporter activity was assayed after treating cells with or without 50 µM JH III.

[2] = target: T1, FAR-RXRalpha heterodimer; test: EMSA; mutated element not recognized; conditions: tags: rabbit reticulocyte lysate TNT, Promega; label: 32P (Klenow)
Procedure: (§1) It was next sought to determine the DNA binding properties of the FAR-RXRα complex. Because FAR and EcR share 100% sequence identity in the DNA recognition helix (P-box, Cys^141-Lys^145), it was examined whether the FAR-RXRα complex could recognize the hsp27 […] (EcRE; Yao et al., *Cell* 71:63–72 (1992)). Electrophoretic mobility shift analysis was performed using [^32P]-labeled DNA and in vitro translated FAR and RXRα. Proteins used in electrophoretic mobility shift assays were prepared by translation in a rabbit reticulocyte lysate system (TNT, Promega). Proteins (1 µl) were incubated for 20 minutes at room temperature with 100,000 cpm of Klenow-labeled probes in 10 mM Tris pH 8, 100 mM KCl, 6% glycerol, 0.05% NP-40, 1 mM DTT, 100 ng/µl poly dI dC and then electrophoresed through a 5% polyacrylamide gel in 0.5×TBE. The gel was autoradiographed for 1.5 hours with an intensifying screen.

[3] = target: T1, FAR-RXRalpha heterodimer; test: EMSA; cooperative binding; conditions: tags: rabbit reticulocyte lysate TNT, Promega; label: 32P (Klenow)
Procedure: as §1

[4] = target: T1, FAR-RXRalpha heterodimer; test: EMSA; half-site substitutions abolish binding; conditions: tags: rabbit reticulocyte lysate TNT, Promega; label: 32P (Klenow)
Procedure: as §1

[5] = target: RXRalpha (UniProt P19793 P19793:1-462); test: EMSA; RXRalpha alone, no high affinity binding; conditions: tags: rabbit reticulocyte lysate TNT, Promega; GenBank X52773 cited for human RXRalpha; label: 32P (Klenow)
Procedure: as §1

T1 sequence (Q62735 whole entry, chain 1 of 2): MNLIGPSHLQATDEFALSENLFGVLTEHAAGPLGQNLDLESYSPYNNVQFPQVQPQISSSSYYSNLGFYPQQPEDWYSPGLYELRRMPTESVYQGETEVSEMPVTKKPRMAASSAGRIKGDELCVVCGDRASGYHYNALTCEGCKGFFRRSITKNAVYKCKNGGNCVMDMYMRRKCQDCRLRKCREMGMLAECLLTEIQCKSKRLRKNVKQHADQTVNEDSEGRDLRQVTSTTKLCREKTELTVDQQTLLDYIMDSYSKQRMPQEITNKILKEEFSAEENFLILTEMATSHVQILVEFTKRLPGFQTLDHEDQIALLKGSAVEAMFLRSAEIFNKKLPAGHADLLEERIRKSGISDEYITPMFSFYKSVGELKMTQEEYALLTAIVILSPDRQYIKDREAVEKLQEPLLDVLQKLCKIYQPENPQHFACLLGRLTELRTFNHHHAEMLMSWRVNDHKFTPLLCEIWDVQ
T1 sequence (P19793 whole entry, chain 2 of 2): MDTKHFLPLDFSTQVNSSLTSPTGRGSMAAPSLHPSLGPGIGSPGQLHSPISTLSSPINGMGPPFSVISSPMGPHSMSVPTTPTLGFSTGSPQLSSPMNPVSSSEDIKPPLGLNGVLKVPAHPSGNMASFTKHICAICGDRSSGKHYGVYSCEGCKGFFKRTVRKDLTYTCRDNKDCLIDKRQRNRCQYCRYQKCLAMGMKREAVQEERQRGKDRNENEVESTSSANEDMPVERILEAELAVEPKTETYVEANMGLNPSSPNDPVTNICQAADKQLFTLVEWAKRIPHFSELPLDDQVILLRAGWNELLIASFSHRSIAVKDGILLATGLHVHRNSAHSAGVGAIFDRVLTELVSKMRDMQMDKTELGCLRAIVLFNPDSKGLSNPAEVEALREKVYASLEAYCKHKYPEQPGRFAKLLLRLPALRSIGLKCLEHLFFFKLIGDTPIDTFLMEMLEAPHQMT
Chain of RXRalpha (P19793 whole entry, one chain of several): as the sequence (P19793 whole entry, chain 2 of 2) above

B1: hsp27-EcRE x5 MTV-luciferase reporter (dsDNA)
DNA 1: GGTTCAATGCACT
DNA 2: AGTGCATTGAACC
activity [1]: 17 fold activation

B2: EcREm (mutated hsp27-EcRE) (dsDNA)
DNA 1: CGTTCAATGCACA
DNA 2: TGTGCATTGAACG
binding result [2]: no binding

B3: idealized IR1 (dsDNA)
DNA 1: AGGTCAATGACCT
DNA 2: AGGTCATTGACCT
binding result [3]: binds

B4: IR1m (dsDNA)
DNA 1: AGAACAATGTTCT
DNA 2: AGAACATTGTTCT
binding result [4]: no binding

B5: hsp27-EcRE (dsDNA)
DNA 1: GGTTCAATGCACT
DNA 2: AGTGCATTGAACC
binding result [5]: no binding
